Measurements from the supplement of paper PMC10567573.

B1: C20orf112 (parent)
chain: YANGGLNYSYRGYGALSSNLQPPA

Variants of: B1
Experiment: protein stability index of a GFP-peptide fusion (GPS, HEK-293T) (PSI 1-6); higher = more stable
Conditions: c terminus: a fixed tail appended
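Also: lentivirally expressed fusions sorted by FACS into six bins by GFP to DsRed ratio, PSI derived from sequencing read proportions per bin multiplied by bin number.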

Compared with YANGGLNQSYRGYGALSSNLQPPA [Y8Q], YANGGLNPSYRGYGALSSNLQPPA [Y8P] is lower in protein stability index: 1.64 for the first, 1.37 for the second.

Going from YANGGLNKSYRGYGALSSNLQPPA [Y8K] to YANGGLNTSYRGYGALSSNLQPPA [Y8T], the protein stability index rises from 1.83 to 1.84.

Going from YANGGLNHSYRGYGALSSNLQPPA [Y8H] to YANGGLNDSYRGYGALSSNLQPPA [Y8D], the protein stability index rises from 1.85 to 1.95.

Compared with YANGGLNNSYRGYGALSSNLQPPA [Y8N], YANGGLNFSYRGYGALSSNLQPPA [Y8F] is lower in protein stability index: 2.22 for the first, 1.73 for the second.

Compared with YANGGLNGSYRGYGALSSNLQPPA [Y8G], YANGGLNLSYRGYGALSSNLQPPA [Y8L] is lower in protein stability index: 2.19 for the first, 1.94 for the second.

First: YANGGLNASYRGYGALSSNLQPPA [Y8A]
Second: YANGGLNISYRGYGALSSNLQPPA [Y8I]
The protein stability index of the first is lower: 1.76 for the first, 2.15 for the second.

Compared with YANGGLNVSYRGYGALSSNLQPPA [Y8V], YANGGLNMSYRGYGALSSNLQPPA [Y8M] is lower in protein stability index: 2.19 for the first, 1.95 for the second.

Going from YANGGLNCSYRGYGALSSNLQPPA [Y8C] to YANGGLNESYRGYGALSSNLQPPA [Y8E], the protein stability index falls from 2.22 to 2.13.

Going from YANGGLNSSYRGYGALSSNLQPPA [Y8S] to YANGGLNRSYRGYGALSSNLQPPA [Y8R], the protein stability index rises from 1.89 to 2.04.

Compared with YANGGLNWSYRGYGALSSNLQPPA [Y8W], YANGGLNYSYRYYGALSSNLQPPA [G12Y] is higher in protein stability index: 2.23 for the first, 3 for the second.

First: YANGGLNYSYRPYGALSSNLQPPA [G12P]
Second: YANGGLNYSYRLYGALSSNLQPPA [G12L]
The protein stability index of the first is lower: 1.91 for the first, 2.31 for the second.

First: YANGGLNYSYRKYGALSSNLQPPA [G12K]
Second: YANGGLNYSYRAYGALSSNLQPPA [G12A]
The protein stability index of the first is lower: 1.97 for the first, 2.46 for the second.

First: YANGGLNYSYRTYGALSSNLQPPA [G12T]
Second: YANGGLNYSYRWYGALSSNLQPPA [G12W]
The protein stability index of the first is higher: 2.23 for the first, 2.08 for the second.

Going from YANGGLNYSYRVYGALSSNLQPPA [G12V] to YANGGLNYSYRDYGALSSNLQPPA [G12D], the protein stability index falls from 3.16 to 1.42.

Compared with YANGGLNYSYRSYGALSSNLQPPA [G12S], YANGGLNYSYRRYGALSSNLQPPA [G12R] is lower in protein stability index: 1.91 for the first, 1.08 for the second.

Going from YANGGLNYSYRHYGALSSNLQPPA [G12H] to YANGGLNYSYRNYGALSSNLQPPA [G12N], the protein stability index falls from 2.55 to 1.93.

Going from YANGGLNYSYRCYGALSSNLQPPA [G12C] to YANGGLNYSYRIYGALSSNLQPPA [G12I], the protein stability index falls from 2.85 to 2.72.

First: YANGGLNYSYRQYGALSSNLQPPA [G12Q]
Second: YANGGLNYSYRFYGALSSNLQPPA [G12F]
The protein stability index of the first is higher: 1.86 for the first, 1.67 for the second.

First: YANGGLNYSYREYGALSSNLQPPA [G12E]
Second: YANGGLNYSYRMYGALSSNLQPPA [G12M]
The protein stability index of the first is lower: 1.63 for the first, 2.48 for the second.

First: YANGGLNYSYRGYGDLSSNLQPPA [A15D]
Second: YANGGLNYSYRGYGRLSSNLQPPA [A15R]
The protein stability index of the first is lower: 2.07 for the first, 2.8 for the second.

First: YANGGLNYSYRGYGQLSSNLQPPA [A15Q]
Second: YANGGLNYSYRGYGSLSSNLQPPA [A15S]
The protein stability index of the first is lower: 1.77 for the first, 2.22 for the second.

Compared with YANGGLNYSYRGYGCLSSNLQPPA [A15C], YANGGLNYSYRGYGMLSSNLQPPA [A15M] is lower in protein stability index: 2.32 for the first, 1.49 for the second.

Compared with YANGGLNYSYRGYGWLSSNLQPPA [A15W], YANGGLNYSYRGYGHLSSNLQPPA [A15H] is higher in protein stability index: 1.88 for the first, 2.62 for the second.

Going from YANGGLNYSYRGYGGLSSNLQPPA [A15G] to YANGGLNYSYRGYGELSSNLQPPA [A15E], the protein stability index rises from 1.87 to 2.37.

First: YANGGLNYSYRGYGLLSSNLQPPA [A15L]
Second: YANGGLNYSYRGYGKLSSNLQPPA [A15K]
The protein stability index of the first is higher: 2.6 for the first, 2.24 for the second.

First: YANGGLNYSYRGYGVLSSNLQPPA [A15V]
Second: YANGGLNYSYRGYGILSSNLQPPA [A15I]
The protein stability index of the first is lower: 1.85 for the first, 2.42 for the second.

Compared with YANGGLNYSYRGYGPLSSNLQPPA [A15P], YANGGLNYSYRGYGTLSSNLQPPA [A15T] is higher in protein stability index: 2.52 for the first, 2.75 for the second.

Going from YANGGLNYSYRGYGNLSSNLQPPA [A15N] to YANGGLNYSYRGYGFLSSNLQPPA [A15F], the protein stability index rises from 2.4 to 2.68.

Going from YANGGFNYSYRGYGALSSNLQPPA [L6F] to YANGGCNYSYRGYGALSSNLQPPA [L6C], the protein stability index rises from 2.08 to 2.24.

Going from YANGGENYSYRGYGALSSNLQPPA [L6E] to YANGGSNYSYRGYGALSSNLQPPA [L6S], the protein stability index falls from 1.97 to 1.65.

First: YANGGKNYSYRGYGALSSNLQPPA [L6K]
Second: YANGGWNYSYRGYGALSSNLQPPA [L6W]
The protein stability index of the first is lower: 1.57 for the first, 2.27 for the second.

Compared with YANGGYNYSYRGYGALSSNLQPPA [L6Y], YANGGNNYSYRGYGALSSNLQPPA [L6N] is lower in protein stability index: 2.47 for the first, 1.47 for the second.

Going from YANGGPNYSYRGYGALSSNLQPPA [L6P] to YANGGHNYSYRGYGALSSNLQPPA [L6H], the protein stability index falls from 2.5 to 1.97.

Going from YANGGTNYSYRGYGALSSNLQPPA [L6T] to YANGGGNYSYRGYGALSSNLQPPA [L6G], the protein stability index falls from 1.96 to 1.73.

Compared with YANGGVNYSYRGYGALSSNLQPPA [L6V], YANGGMNYSYRGYGALSSNLQPPA [L6M] is higher in protein stability index: 1.85 for the first, 2.3 for the second.

Compared with YANGGDNYSYRGYGALSSNLQPPA [L6D], YANGGINYSYRGYGALSSNLQPPA [L6I] is higher in protein stability index: 1.9 for the first, 2.33 for the second.

First: YANGGQNYSYRGYGALSSNLQPPA [L6Q]
Second: YANGGANYSYRGYGALSSNLQPPA [L6A]
The protein stability index of the first is lower: 1.55 for the first, 2.03 for the second.

Going from YANGGRNYSYRGYGALSSNLQPPA [L6R] to YANGGLNYPYRGYGALSSNLQPPA [S9P], the protein stability index falls from 2.1 to 1.7.

Going from YANGGLNYIYRGYGALSSNLQPPA [S9I] to YANGGLNYQYRGYGALSSNLQPPA [S9Q], the protein stability index falls from 2.58 to 1.46.

Going from YANGGLNYYYRGYGALSSNLQPPA [S9Y] to YANGGLNYEYRGYGALSSNLQPPA [S9E], the protein stability index falls from 1.59 to 1.43.

Going from YANGGLNYHYRGYGALSSNLQPPA [S9H] to YANGGLNYVYRGYGALSSNLQPPA [S9V], the protein stability index rises from 1.82 to 2.6.

First: YANGGLNYWYRGYGALSSNLQPPA [S9W]
Second: YANGGLNYNYRGYGALSSNLQPPA [S9N]
The protein stability index of the first is higher: 2.46 for the first, 1.89 for the second.

First: YANGGLNYAYRGYGALSSNLQPPA [S9A]
Second: YANGGLNYDYRGYGALSSNLQPPA [S9D]
The protein stability index of the first is higher: 2.35 for the first, 1.97 for the second.

Going from YANGGLNYFYRGYGALSSNLQPPA [S9F] to YANGGLNYRYRGYGALSSNLQPPA [S9R], the protein stability index falls from 2.99 to 1.67.

First: YANGGLNYMYRGYGALSSNLQPPA [S9M]
Second: YANGGLNYTYRGYGALSSNLQPPA [S9T]
The protein stability index of the first is higher: 2.77 for the first, 1.82 for the second.

First: YANGGLNYGYRGYGALSSNLQPPA [S9G]
Second: YANGGLNYCYRGYGALSSNLQPPA [S9C]
The protein stability index of the first is higher: 1.88 for the first, 1.7 for the second.

Going from YANGGLNYKYRGYGALSSNLQPPA [S9K] to YANGGLNYSYRGMGALSSNLQPPA [Y13M], the protein stability index rises from 1.57 to 2.56.
